According to patent US20140322253A1 (FRED HUTCHINSON CANCER RESEARCH CENTER, published 2014):

B1: CCNA1 227-235 peptide FLDRFLSCM (peptide)
peptide: FLDRFLSCM
notes: Synthetic peptide; also called the 9-mer
B2: CCNA1 341-351 peptide SLIAAAAFCLA (peptide)
peptide: SLIAAAAFCLA
notes: Synthetic peptide; also called the 11-mer

Target: T1, HLA A*0201 on T2 cells (human)
T1 construct: MHC class I on the surface of T2 cells; surface level read with FITC-labeled anti-HLA A,B,C (W6/32)
Assay: HLA stabilization assay on T2 cells, flow cytometry with anti-HLA A,B,C (W6/32)
Method: T2 cells were pulsed with 100 μg/ml peptide in serum-free RPMI containing 1 μg/ml β-2-microglobulin (Sigma) for 16 h. Cells were then washed and incubated for 4 h in the presence of 5 μg/ml brefeldin A (Sigma), and then stained with FITC-labeled anti-HLA A, B, C (clone W6/32, BD Bioscience).

Binder | binding result
B1 | binds
SLIAAAAFCL [10-mer SLIAAAAFCL (10-mer 1)] | binds
B2 | binds
